From paper PMC8642297

B1: type II TARP γ5 (C-terminally truncated mouse subunit, Cacng5, residues Ser2-Glu207) (domain or fragment)
chain: SACGRKALTLLSSVFAVCGLGLLGIAVSTDYWLYLEEGIILPQNQSTEVKMSLHSGLWRVCFLAGEERGRCFTIEYVMPMNSQMTSESTVNVLKMIRSATPFPLVSLFFMFIGFILSNIGHIRPHRTILAFVSGIFFILSGLSLVVGLVLYISSINDEMLNRTKDAETYFNYKYGWSFAFAAISFLLTESAGVMSVYLFMKRYTAE

What was measured:
[1] = molecular target: GluA2 (modified calcium-permeable rat GluA2flip subunit with Q586 at the Q/R-site, GluA2*) (rat); test: cryo-EM structure
[2] = molecular target: GluA2 (modified calcium-permeable rat GluA2flip subunit with Q586 at the Q/R-site, GluA2*) (rat); test: cryo-EM structure; remark: listed apart in the source

stoichiometry N [1] | stoichiometry N (γ5 per GluA2 tetramer) [2] | Molecule
4 | – | GluA2 (modified calcium-permeable rat GluA2flip subunit with Q586 at the Q/R-site, GluA2*) (receptor)
– | 2 | B1
